Laboratory results taken from publication PMC7984842, “Genetic disruption of WASHC4 drives endo-lysosomal dysfunction and cognitive-movement impairments in mice and humans” (eLife, 2021).

T1: SWIP-MUT-HA (human WASHC4 P1019R) (human, UniProt Q2M389 1-1173, P1019R)
T1 construct: SWIP (WASHC4), human, with the patients' variant c.3056C>G, p.Pro1019Arg, made by site-directed mutagenesis of pmCAG-SWIP-WT-HA; The mutation occurs in human patients (Ropers et al., 2011); also called SWIP^P1019R; MUT SWIP; source: HEK293T, transfected (pmCAG-SWIP-MUT-HA), in lysate
T1 sequence (looked up): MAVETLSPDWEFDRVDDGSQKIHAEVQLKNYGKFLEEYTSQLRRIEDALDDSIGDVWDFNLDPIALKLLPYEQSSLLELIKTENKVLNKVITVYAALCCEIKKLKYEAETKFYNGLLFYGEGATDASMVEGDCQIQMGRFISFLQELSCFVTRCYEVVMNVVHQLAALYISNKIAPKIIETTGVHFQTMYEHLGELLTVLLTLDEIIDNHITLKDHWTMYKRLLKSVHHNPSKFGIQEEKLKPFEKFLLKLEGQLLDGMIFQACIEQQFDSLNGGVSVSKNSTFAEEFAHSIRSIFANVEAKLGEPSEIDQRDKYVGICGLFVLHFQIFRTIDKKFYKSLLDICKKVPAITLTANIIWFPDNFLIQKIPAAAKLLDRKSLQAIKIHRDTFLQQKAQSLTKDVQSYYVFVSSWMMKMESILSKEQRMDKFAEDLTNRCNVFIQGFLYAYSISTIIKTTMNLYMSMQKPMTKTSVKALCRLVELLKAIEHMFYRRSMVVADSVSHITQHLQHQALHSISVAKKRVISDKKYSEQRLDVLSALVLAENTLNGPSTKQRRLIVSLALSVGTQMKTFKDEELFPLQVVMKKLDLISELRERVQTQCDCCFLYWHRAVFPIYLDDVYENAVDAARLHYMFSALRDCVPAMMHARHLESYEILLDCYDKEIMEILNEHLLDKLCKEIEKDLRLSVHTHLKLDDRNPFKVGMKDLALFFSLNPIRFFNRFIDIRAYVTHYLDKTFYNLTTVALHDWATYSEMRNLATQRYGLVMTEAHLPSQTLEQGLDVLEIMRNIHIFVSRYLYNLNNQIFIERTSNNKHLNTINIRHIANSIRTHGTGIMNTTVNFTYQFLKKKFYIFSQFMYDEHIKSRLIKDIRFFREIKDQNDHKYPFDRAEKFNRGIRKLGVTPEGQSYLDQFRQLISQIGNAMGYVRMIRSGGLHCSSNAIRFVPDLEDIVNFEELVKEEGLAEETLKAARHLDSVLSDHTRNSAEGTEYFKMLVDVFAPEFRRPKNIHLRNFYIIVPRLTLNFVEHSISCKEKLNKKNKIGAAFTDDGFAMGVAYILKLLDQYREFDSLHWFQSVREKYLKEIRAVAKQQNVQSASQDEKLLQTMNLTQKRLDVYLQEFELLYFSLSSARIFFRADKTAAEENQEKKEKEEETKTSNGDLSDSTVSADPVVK


Target: T1, SWIP-MUT-HA (human WASHC4 P1019R)
Experiment: co-IP; HEK293T transfected with SWIP-WT-HA or SWIP-MUT-HA for three days; lysis buffer 25 mM HEPES, 150 mM NaCl, 1 mM EDTA, 1% Nonidet P-40, pH 7.4; anti-HA agarose beads 2 hr at 4°C; blots for WASH1, Strumpellin and HA; band intensities normalised to WT
Details: partners not purified

| Binder | amount co-immunoprecipitated, % of WT SWIP |
| --- | --- |
| Strumpellin (WASHC5), human (natural protein, human (endogenous in HEK293T), UniProt Q12768 1-1159, looked up, Strumpellin (WASHC5), endogenous in HEK293T cells, detected with an anti-Strumpellin antibody; source: endogenous, HEK293T lysate) MLDFLAENNLCGQAILRIVSCGNAIIAELLRLSEFIPAVFRLKDRADQQKYGDIIFDFSYFKGPELWESKLDAKPELQDLDEEFRENNIEIVTRFYLAFQSVHKYIVDLNRYLDDLNEGVYIQQTLETVLLNEDGKQLLCEALYLYGVMLLVIDQKIEGEVRERMLVSYYRYSAARSSADSNMDDICKLLRSTGYSSQPGAKRPSNYPESYFQRVPINESFISMVIGRLRSDDIYNQVSAYPLPEHRSTALANQAAMLYVILYFEPSILHTHQAKMREIVDKYFPDNWVISIYMGITVNLVDAWEPYKAAKTALNNTLDLSNVREQASRYATVSERVHAQVQQFLKEGYLREEMVLDNIPKLLNCLRDCNVAIRWLMLHTADSACDPNNKRLRQIKDQILTDSRYNPRILFQLLLDTAQFEFILKEMFKQMLSEKQTKWEHYKKEGSERMTELADVFSGVKPLTRVEKNENLQAWFREISKQILSLNYDDSTAAGRKTVQLIQALEEVQEFHQLESNLQVCQFLADTRKFLHQMIRTINIKEEVLITMQIVGDLSFAWQLIDSFTSIMQESIRVNPSMVTKLRATFLKLASALDLPLLRINQANSPDLLSVSQYYSGELVSYVRKVLQIIPESMFTSLLKIIKLQTHDIIEVPTRLDKDKLRDYAQLGPRYEVAKLTHAISIFTEGILMMKTTLVGIIKVDPKQLLEDGIRKELVKRVAFALHRGLIFNPRAKPSELMPKLKELGATMDGFHRSFEYIQDYVNIYGLKIWQEEVSRIINYNVEQECNNFLRTKIQDWQSMYQSTHIPIPKFTPVDESVTFIGRLCREILRITDPKMTCHIDQLNTWYDMKTHQEVTSSRLFSEIQTTLGTFGLNGLDRLLCFMIVKELQNFLSMFQKIILRDRTVQDTLKTLMNAVSPLKSIVANSNKIYFSAIAKTQKIWTAYLEAIMKVGQMQILRQQIANELNYSCRFDSKHLAAALENLNKALLADIEAHYQDPSLPYPKEDNTLLYEITAYLEAAGIHNPLNKIYITTKRLPYFPIVNFLFLIAQLPKLQYNKNLGMVCRKPTDPVDWPPLVLGLLTLLKQFHSRYTEQFLALIGQFICSTVEQCTSQKIPEIPADVVGALLFLEDYVRYTKLPRRVAEAHVPNFIFDEFRTVL | 54.8 % of WT |
| WASH1 (WASHC1), human (natural protein, human (endogenous in HEK293T), UniProt A8K0Z3 1-465, looked up, WASH1 (WASHC1), endogenous in HEK293T cells, detected with an anti-WASH1 C-terminal antibody; Human cells carry several near-identical WASH paralogues; source: endogenous, HEK293T lysate) MTPVRMQHSLAGQTYAVPFIQPDLRREEAVQQMADALQYLQKVSGDIFSRISQQVEQSRSQVQAIGEKVSLAQAKIEKIKGSKKAIKVFSSAKYPAPGRLQEYGSIFTGAQDPGLQRRPRHRIQSKHRPLDERALQEKLKDFPVCVSTKPEPEDDAEEGLGGLPSNISSVSSLLLFNTTENLYKKYVFLDPLAGAVTKTHVMLGAETEEKLFDAPLSISKREQLEQQVPENYFYVPDLGQVPEIHVPSYLPDLPGIANDLMYSADLGPGIAPSAPGTIPELPTFHTEVAEPLKVDLQDGVLTPPPPPPPPPPAPEVLASAPPLPPSTAAPVGQGARQDDSSSSASPSVQGAPREVVDPSGGWATLLESIRQAGGIGKAKLRSMKERKLEKQQQKEQEQVRATSQGGHLMSDLFNKLVMRRKGISGKGPGAGEGPGGAFVRVSDSIPPLPPPQQPQAEEDEDDWES | 41.4 % of WT |
